Data published in patent publication US20170362324A1 (Biogen, published 2017).
Substitutions are numbered along the chain they refer to. Names and notes keep the numbering of the source.

B1: VH1/VL0 Agly-hIgG1(T299A) (antibody, V domains shown)
VH: EVQVVESGGGLVKPGGSLRLSCAASGYTFTSYWMHWVRQAPGKGLEWVGAIYPGNSDTSYNQKFKGRFTISADTSKNTLYLQMNSLKTEDTAVYYCTTTTYGYDWFAYWGQGTLVTVSS
VL: DIQMTQSPSSVSASVGDRVTITCKSSQSVLYSSNQKNYLAWYQQKPGKAPKLLIYWASTRESGVPSRFSGSGSGTDFTLTISSLQPEDFATYYCHQYLSSLTFGQGTKVEIK
notes: also called H1/L0
B2: VH1/VL3 Agly-hIgG1(T299A) (antibody, V domains shown)
VH: B1 VH
VL: DIQMTQSPSSLTVSVGDRVTMSCKSSQSVLYSSNQKNYLAWYQQKPGKSPKLLIYWASTRESGVPDRFTGSGSGTDFTLTISSVQPEDFATYYCHQYLSSLTFGAGTKLEIK
notes: also called H1/L3
B3: VH0/VL3 Agly-hIgG1(T299A) (antibody, V domains shown)
VH: B1 VH with V4L, A72R, T74D
VL: B2 VL
notes: also called H0/L3
B4: VH0/VL2 Agly-hIgG1(T299A) (antibody, V domains shown)
VH: B1 VH with V4L, A72R, T74D
VL: B2 VL with D1N, T12S, V13A, V84L, A105Q
notes: also called H0/L2
B5: VH2/VL1 Agly-hIgG1(T299A) (antibody, V domains shown)
VH: B1 VH with E6Q, G16E, R38K, R67K, K76S, L79A
VL: B1 VL with V11L, I21M, S66D, V109L
notes: also called H2/L1
B6: VH5/VL3 Agly-hIgG1(T299A) (antibody, V domains shown)
VH: B1 VH with V5Q, E6Q, A23K, R38K, R67K, F68A, I70L, D73V, K76P, L79A
VL: B2 VL
notes: also called H5/L3
B7: VH3/VL1 Agly-hIgG1(T299A) (antibody, V domains shown)
VH: B1 VH with A23K, R38K, R67K, I70L, D73V, K76S, L79A
VL: B1 VL with V11L, I21M, S66D, V109L
notes: also called H3/L1
B8: VH2/VL3 Agly-hIgG1(T299A) (antibody, V domains shown)
VH: B1 VH with E6Q, G16E, R38K, R67K, K76S, L79A
VL: B2 VL
notes: also called H2/L3
B9: VH3/VL3 Agly-hIgG1(T299A) (antibody, V domains shown)
VH: B1 VH with A23K, R38K, R67K, I70L, D73V, K76S, L79A
VL: B2 VL
notes: also called H3/L3
B10: VH4/VL3 Agly-hIgG1(T299A) (antibody, V domains shown)
VH: B1 VH with E6Q, G16E, A23K, R38K, R67K, K76P, L79A
VL: B2 VL
notes: also called H4/L3
B11: VH1/VL2 Agly-hIgG1(T299A) (antibody, V domains shown)
VH: B1 VH
VL: B2 VL with D1N, T12S, V13A, V84L, A105Q
notes: also called H1/L2
B12: VH1/VL1 Agly-hIgG1(T299A) (antibody, V domains shown)
VH: B1 VH
VL: B1 VL with V11L, I21M, S66D, V109L
notes: also called H1/L1

Target: T1, human αvβ5 expressed on BaF3 cells (stably transfected with human αv and β5 subunits) (human, UniProt P06756 31-1048; P18084 24-799)
T1 sequence (P06756 31-1048 limits assumed, chain 1 of 2): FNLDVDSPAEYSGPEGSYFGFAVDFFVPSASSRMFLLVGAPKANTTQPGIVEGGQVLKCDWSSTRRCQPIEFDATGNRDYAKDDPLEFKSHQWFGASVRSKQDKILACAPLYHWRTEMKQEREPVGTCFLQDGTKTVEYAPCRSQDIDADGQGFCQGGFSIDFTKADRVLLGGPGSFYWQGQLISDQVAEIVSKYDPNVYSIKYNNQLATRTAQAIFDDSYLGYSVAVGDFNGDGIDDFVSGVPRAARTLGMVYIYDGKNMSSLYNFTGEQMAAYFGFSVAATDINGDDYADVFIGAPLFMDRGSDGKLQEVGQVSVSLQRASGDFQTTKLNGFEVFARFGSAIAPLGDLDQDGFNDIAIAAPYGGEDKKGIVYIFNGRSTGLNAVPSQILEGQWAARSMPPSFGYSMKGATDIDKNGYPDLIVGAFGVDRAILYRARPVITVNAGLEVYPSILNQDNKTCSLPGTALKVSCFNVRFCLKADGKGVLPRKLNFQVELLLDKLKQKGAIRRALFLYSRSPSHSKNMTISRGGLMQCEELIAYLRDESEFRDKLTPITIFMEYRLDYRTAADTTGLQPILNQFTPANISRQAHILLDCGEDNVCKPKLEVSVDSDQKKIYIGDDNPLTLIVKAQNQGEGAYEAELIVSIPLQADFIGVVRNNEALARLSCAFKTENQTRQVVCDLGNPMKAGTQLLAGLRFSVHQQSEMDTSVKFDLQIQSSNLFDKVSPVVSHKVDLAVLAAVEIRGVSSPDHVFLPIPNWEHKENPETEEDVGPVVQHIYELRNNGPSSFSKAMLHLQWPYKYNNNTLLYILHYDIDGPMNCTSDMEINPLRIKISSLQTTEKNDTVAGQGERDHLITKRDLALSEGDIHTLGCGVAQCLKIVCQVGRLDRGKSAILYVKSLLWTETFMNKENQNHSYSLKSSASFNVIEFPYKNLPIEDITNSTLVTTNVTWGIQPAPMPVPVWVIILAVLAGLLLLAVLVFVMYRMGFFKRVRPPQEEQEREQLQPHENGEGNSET
T1 sequence (P18084 24-799 limits assumed, chain 2 of 2): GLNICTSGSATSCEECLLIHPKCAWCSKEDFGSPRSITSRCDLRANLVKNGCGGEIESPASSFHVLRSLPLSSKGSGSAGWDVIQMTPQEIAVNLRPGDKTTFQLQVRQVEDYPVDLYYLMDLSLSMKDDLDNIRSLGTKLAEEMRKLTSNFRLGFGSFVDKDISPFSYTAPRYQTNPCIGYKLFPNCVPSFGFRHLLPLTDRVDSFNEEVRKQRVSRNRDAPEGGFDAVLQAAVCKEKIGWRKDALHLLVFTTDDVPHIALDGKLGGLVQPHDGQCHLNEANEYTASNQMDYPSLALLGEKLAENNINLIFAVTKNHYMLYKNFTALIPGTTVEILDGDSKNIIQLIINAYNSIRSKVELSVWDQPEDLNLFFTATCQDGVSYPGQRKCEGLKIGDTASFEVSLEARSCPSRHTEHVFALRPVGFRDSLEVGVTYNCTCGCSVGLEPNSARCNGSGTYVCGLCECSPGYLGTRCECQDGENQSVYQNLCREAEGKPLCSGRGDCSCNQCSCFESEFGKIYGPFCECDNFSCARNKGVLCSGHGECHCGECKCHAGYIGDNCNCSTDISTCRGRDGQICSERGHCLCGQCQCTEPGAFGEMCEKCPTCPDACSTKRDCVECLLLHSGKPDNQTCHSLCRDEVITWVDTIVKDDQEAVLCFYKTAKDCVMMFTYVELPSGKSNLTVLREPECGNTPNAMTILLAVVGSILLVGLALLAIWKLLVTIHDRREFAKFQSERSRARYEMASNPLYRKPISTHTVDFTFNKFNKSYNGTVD
Assay: cell-based or functional assay

Question: How did the “VN adhesion inhibition, αvβ5-BaF3 (IC50, nM)” value (shortened to “VN adhesion inhibition”) turn out when B1 was run?
Answer: 3300 nM

Question: For B2, which “VN adhesion inhibition” value is on record?
Answer: 1840 nM

Question: For B3, which “VN adhesion inhibition” value is on record?
Answer: 494 nM

Question: With B4 as the binder, how does the “VN adhesion inhibition” value read?
Answer: 1970 nM

Question: Which “VN adhesion inhibition” value does the source give for B5 here?
Answer: 318 nM

Question: Which “VN adhesion inhibition” value does the source give for B6 here?
Answer: 72.2 nM

Question: B7 was tested. Which “VN adhesion inhibition” value did it give?
Answer: 360 nM

Question: For B8, which “VN adhesion inhibition” value is on record?
Answer: 303 nM

Question: How did the “VN adhesion inhibition” value turn out when B9 was run?
Answer: 227 nM

Question: For B10, which “VN adhesion inhibition” value is on record?
Answer: 64.8 nM

Question: How did the “VN adhesion inhibition” value turn out when B11 was run?
Answer: 1730 nM

Question: B12 was tested. Which “VN adhesion inhibition” value did it give?
Answer: 2520 nM

Target: T1, human αvβ5 expressed on BaF3 cells …
Assay: FACS on αvβ5-BaF3 cells, unpurified antibody
Protocol: FACS Binding Assay: Cells were washed one time in PBS, and then resuspended in FACS buffer (1×PBS, 1% BSA, 1 mM CaCl₂, and 1 mM MgCl₂). 1×10⁶ cells were then incubated on ice for 1 hr in FACS buffer containing the test antibody in a total volume of 50 μl. After incubation, the cells were washed two times with ice cold FACS buffer, resuspended in 50 μl of FACS buffer containing 3 μg/ml goat anti-mouse IgG AlexaFluor488 (Jackson ImmunoResearch), and incubated on ice for 30 min. The cells were then washed twice with ice cold FACS buffer and fixed in 1% PFA overnight. Cell aggregates were removed by filtering through 40 μm filter plates (Millipore) and binding of the labeled secondary antibody was monitored by flow cytometry using a FACS Calibur (BD Biosciences).
(§1) Screening of all combinations of heavy chain versions VH0, VH1, VH2, VH3, VH4, or VH5, with light chains VL0, VL1, VL2, or VL3 was carried out using unpurified proteins in conditioned cell media. The binding of each construct to biotin-conjugated human αvβ5 protein was determined using a solid-phase binding assay (ELISA) and by FACS, and the ability of each construct to block ligand binding was determined using a vitronectin cell adhesion assay (Table 1).

Question: Which EC50 does the source give for B1 here?
Answer: 3680 nM

Question: For B2, which EC50 is on record?
Answer: 2930 nM

Question: With B3 as the binder, how does the EC50 read?
Answer: 1270 nM

Question: Which EC50 does the source give for B4 here?
Answer: 855 nM

Question: How did the EC50 turn out when B5 was run?
Answer: 405 nM

Question: B6 was tested. Which EC50 did it give?
Answer: 422 nM

Question: For B7, which EC50 is on record?
Answer: 1930 nM

Question: B8 was tested. Which EC50 did it give?
Answer: 990 nM

Question: B9 was tested. Which EC50 did it give?
Answer: 6290 nM

Question: For B10, which EC50 is on record?
Answer: 162 nM

Question: Which EC50 does the source give for B11 here?
Answer: 5370 nM

Question: Which EC50 does the source give for B12 here?
Answer: 3360 nM

Target: T2, human soluble αvβ5 protein (extracellular domains of human αv and β5 integrin subunits) (human, UniProt P06756 31-992; P18084 24-719)
T2 construct: also called biotin-αvβ5; hsαvβ5
T2 sequence (P06756 31-992 limits assumed, chain 1 of 2): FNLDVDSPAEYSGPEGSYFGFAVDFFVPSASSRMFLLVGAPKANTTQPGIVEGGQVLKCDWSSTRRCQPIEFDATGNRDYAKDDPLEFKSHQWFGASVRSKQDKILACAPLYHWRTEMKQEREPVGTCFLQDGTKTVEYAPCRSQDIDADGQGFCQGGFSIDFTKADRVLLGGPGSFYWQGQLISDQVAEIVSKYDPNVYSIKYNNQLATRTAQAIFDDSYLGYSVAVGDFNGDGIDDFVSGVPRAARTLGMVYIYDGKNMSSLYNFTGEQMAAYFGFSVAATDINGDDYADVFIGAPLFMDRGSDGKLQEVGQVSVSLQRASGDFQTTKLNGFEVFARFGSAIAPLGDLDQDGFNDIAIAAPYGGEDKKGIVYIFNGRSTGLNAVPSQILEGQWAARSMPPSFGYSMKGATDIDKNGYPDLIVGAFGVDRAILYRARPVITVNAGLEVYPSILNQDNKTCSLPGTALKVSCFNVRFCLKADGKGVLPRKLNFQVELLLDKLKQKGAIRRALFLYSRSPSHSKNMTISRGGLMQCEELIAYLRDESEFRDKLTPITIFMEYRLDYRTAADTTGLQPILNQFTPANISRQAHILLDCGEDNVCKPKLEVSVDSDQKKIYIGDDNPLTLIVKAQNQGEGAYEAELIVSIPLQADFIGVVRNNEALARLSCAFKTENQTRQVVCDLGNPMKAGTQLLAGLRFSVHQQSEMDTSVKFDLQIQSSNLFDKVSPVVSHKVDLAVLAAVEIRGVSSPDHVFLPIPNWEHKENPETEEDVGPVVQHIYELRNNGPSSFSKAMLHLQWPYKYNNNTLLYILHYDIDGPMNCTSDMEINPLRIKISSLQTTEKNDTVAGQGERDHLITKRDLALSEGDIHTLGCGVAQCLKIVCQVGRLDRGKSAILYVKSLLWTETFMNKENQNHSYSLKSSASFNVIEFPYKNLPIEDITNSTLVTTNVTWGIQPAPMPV
T2 sequence (P18084 24-719 limits assumed, chain 2 of 2): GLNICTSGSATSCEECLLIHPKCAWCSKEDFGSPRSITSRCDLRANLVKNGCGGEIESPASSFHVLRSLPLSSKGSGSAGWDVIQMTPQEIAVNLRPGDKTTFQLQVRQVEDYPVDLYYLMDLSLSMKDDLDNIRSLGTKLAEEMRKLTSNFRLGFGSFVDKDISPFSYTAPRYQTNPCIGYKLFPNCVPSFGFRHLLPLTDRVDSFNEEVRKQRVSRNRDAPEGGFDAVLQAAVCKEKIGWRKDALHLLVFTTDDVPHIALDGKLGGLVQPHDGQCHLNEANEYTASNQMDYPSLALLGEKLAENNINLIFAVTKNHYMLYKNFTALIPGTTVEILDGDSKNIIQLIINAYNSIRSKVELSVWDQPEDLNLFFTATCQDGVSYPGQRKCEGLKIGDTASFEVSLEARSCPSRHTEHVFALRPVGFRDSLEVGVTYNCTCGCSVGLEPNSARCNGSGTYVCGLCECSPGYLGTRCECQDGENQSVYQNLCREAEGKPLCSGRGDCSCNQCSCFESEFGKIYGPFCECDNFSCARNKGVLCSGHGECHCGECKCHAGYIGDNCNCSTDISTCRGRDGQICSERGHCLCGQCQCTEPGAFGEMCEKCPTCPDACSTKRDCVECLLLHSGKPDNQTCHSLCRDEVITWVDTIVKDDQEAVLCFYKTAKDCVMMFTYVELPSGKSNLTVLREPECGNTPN
Assay: ELISA, biotin-αvβ5 on streptavidin plate, unpurified antibody
Protocol: Solid-Phase αvβ5 Binding Assay (ELISA): A 96-well microtiter plate was precoated with streptavidin (Thermo Scientific Reacti-Bind StreptAvidin Coated High Binding Capacity plate) was used. Biotinylated soluble αvβ5 protein (2 μg/mL) in TBS with 1% BSA was added to the wells, and the plate was incubated for 1 hr at 25° C. The plate was washed with wash buffer (0.05% Tween-20 in PBS), and purified humanized ALULA antibody in TBS containing 1% BSA, 1 mM CaCl2, and 1 mM MgCl2 were added (50 μl/well). The plate was incubated for 1 hr at 25° C., washed, and then incubated for 1 hr with 50 μl/well of […] goat anti-human secondary antibody. Bound antibody was detected using 3,3′,5,5′-tetramethylbenzidine (TMB). Binding was indicated by the absorbency measured at 450 nm.
as §1

Question: Which EC50 does the source give for B1 here?
Answer: 1 nM

Question: With B2 as the binder, how does the EC50 read?
Answer: 2.9 nM

Question: Which EC50 does the source give for B3 here?
Answer: 0.9 nM

Question: B4 was tested. Which EC50 did it give?
Answer: 1 nM

Question: How did the EC50 turn out when B5 was run?
Answer: 1 nM

Question: B6 was tested. Which EC50 did it give?
Answer: 1.4 nM

Question: With B7 as the binder, how does the EC50 read?
Answer: 1.2 nM

Question: Which EC50 does the source give for B8 here?
Answer: 1 nM

Question: With B9 as the binder, how does the EC50 read?
Answer: 1.2 nM

Question: Which EC50 does the source give for B10 here?
Answer: 1.7 nM

Question: How did the EC50 turn out when B11 was run?
Answer: 2.3 nM

Question: With B12 as the binder, how does the EC50 read?
Answer: 1.9 nM
